Our source for the protein production values is a protein production outcome set (Wang et al. 2014).

The nature of the series: label from the status in PepcDB records.
Turning to “MNTSHVRVVTHMCGFLVWLYSLSMLPPMVVALFYKEKSLFVFFITFVIFFCIGGGAWYTTKKSGIQLRTRDGFIIIVMFWILFSVISAFPLWIDSELNLTFIDALFEGVSGITTTGATVIDDVSSLPRAYLYYRSQLNFIGGLGVIVLAVAVLPLLGIGGAKLYQSEMPGPFKDDKLTPRLADTSRTLWITYSLLGIACIVCYRLAGMPLFDAICHGISTVSLGGFSTHSESIGYFNNYLVELVAGSFSLLSAFNFTLWYIVISRKTIKPLIRDIELRFFLLIALGVIIVTSFQVWHIGMYDLHGSFIHSFFLASSMLTDNGLATQDYASWPTHTIVFLLLSSFFGGCIGSTCGGIKSLRFLILFKQSKHEINQLSHPRALLSVNVGGKIVTDRVMRSVWSFFFLYTLFTVFFILVLNGMGYDFLTSFATVAACINNMGLGFGATASSFGVLNDIAKCLMCIAMILGRLEIYPVIILFSGFFWRS”, the protein production result was “failed”. As to “MNTTEFDGISHAEGLCDKEFIGKAISYLYRYGQIYIGKKIEPYGIGSGQFPFLMRLYREDGINQESLSDYLKIDKGTTARAIQKLVDEGYVFRQRDEKDRRSYRVFLTEKGKKLEPDMKKIASEWGEILFSSFDDRQRREITNSLEIMFENGLKIM”, the protein production entry was “not failed”. Turning to “MNTTKRILILLLLALITGCAMHTTRNPSFLEGKRLIAEGRLEEGLGKLEQAAREEPDDREVGATLARERDTIIGQILFEADNARLAGNLDQAEQNYQRVLNIRASSERAREGLDAVDLERRHIVLVNQAKEALAHGDVDGAEKIVRGVLADNPMQSEARQLIKALSEQIARAEMSELSLITEFSKPITMEFRDTSLKTMFELISRTAGINFVFDRNVQQEATASIFVRDNSIEDVLKLMLLTNQLAYKVLNSNTLLIYPDTPAKQKDYQELVVRSFHVANTDVKQMVAMIRGLVKARDIYVNEKLNLFVIRDTLEMIRLVERLVAINDFPDPEVMLDVVVLEVKRDSTLDLGPNMPTSVTFSAVPGIGTPAQAAADSVVKMSMIKNTGFEGLRSFTISNQARIDFGRTLTNADVLANPRIRVKSREKAKIHIGNKEPVFTVTNTANVGSAASATYIDVGLKFEVEPVVRTNNEVTLKALLEVSSNLGEKRSGSGENAATAIVIGTRTAETVLELRDGETQVLAGLIQDDLSRVRSGIAGLTDIPVLGDIFSKQVRKHNKTEIILLITPHIVRNVIQPNHFESEFYSGTASAAGKLPVTIRKTAPRSLAMESSNSASDGGYMSLGRARSAGLFGAAPDLFEEAVTQAREASPSLTLRVPESVAGGREFTATVRLVTQDPMLSGELNLTYDPDTLELVDGGEKSGMRSLKLGRDQSTGMTAVLRFKVISTNATSTEIALQNLQVRDETGQPVEVNLPPAASIRIQ”, the protein production entry was “failed”.

“MNTTLFRWPVRVYYEDTDAGGVVYHASYVAFYERARTEMLRHHHFSQQALMAERVAFVVRKMTVEYYAPARLDDMLEIQTEITSMRGTSLVFTQRIVNAENTLLNEAEVLVVCVDPLKMKPRALPKSIVAEFKQ”: the protein production result is recorded as “not failed”. For the sequence “MNVDFINPFLDSLLNVLKTMANMELKPGKPNLKKDNLAKGDVSGLIGMVGPQTKGSLSITFEETLILEIMNKMLGEKPESIDEEVTDLVGELTNMVTGGAKNLLSDKGYEFDMATPIVVSGKNHTIAHKSDGQKIIMPFSSIYGTAYIEICFEG”, the protein production entry was “not failed”. Turning to “MNVLRPTLLTLACLLASPGFADDLPSLGDASSAIVSPQQEYQLGRAWLALLRSQVSQLNDPQLKDYVETSVYKLVETSQVNDRRLEFILINSPQLNAFAAPGGIIGVNGGLFLNAQTEGEYASVLAHELAHLSQRHFARGVEAQQRMQVPMMAALLAGIVIAAAGAGDAGIATIAGTQAAAIQEQRRFSRQNEQEADRIGILNLEKAGYDPRSMPTMFERLMRQYRFDAKPPEFLLTHPVTESRIADTRNRAEQARQGGTEDSLRYQLIRARVQLTYEESPGLAAKRFRAQLDENPKNDIARYGLAIAQIKGSQWNEARENLKPLLAKSPNDVTYNLAQIELDMANSRLPDAQTRVERMLNLYPGNYPLNQIRVDLLLKQNRPADAEKALEGLLKSRPDDPDVWYLVAETRGLSGNIIGLHQARAEYFALVGDYRQAIQQLDFAKRRAGSNFPLSSRIDARQREMMDQEQMVKDMMRLEHHHHHH”, the protein production entry is “not failed”. For the sequence “MNVMRHSWLAVAGIAGLLAFPPVDACTLWGAAGTASMEGSLLAKNRDWKPDHAQSLRLLHPEHGYAYLGLYADNGSEPGIKAGVNQKGLAVVAAEASSLPRALRADSARHGVLTRLLRDYGSLDEVASAADKLFAQARPVFLLLADAGGLMQVEIGQHGRYRLIRQQSGTLAHTNHYADTSLLDGAQTIGPSSQARLERIRFLLDQHPAHTLSEFERLSRDRHDGPDNSLWRSGREHTLAGWRIALPAGAPPRLQLTLANPGRAERDGDYALDSAFWAQPARTLLPLEHHHHHH”, the protein production entry is recorded as “not failed”. The entry for “MNVSKILVSPTVTTNVLRIFAPRLPQIGASLLVQKKWALRSKKFYRFYSEKNSGEMPPKKEADSSGKASNKSTISSIDNSQPPPPSNTNDKTKQANVAVSHAMLATREQEANKDLTSPDAQAAFYKLLLQSNYPQYVVSRFETPGIASSPECMELYMEALQRIGRHSEADAVRQNLLTASSAGAVNPSLASSSSNQSGYHGNFPSMYSPLYGSRKEPLHVVVSESTFTVVSRWVKWLLVFGILTYSFSEGFKYITENTTLLKSSEVADKSVDVAKTNVKFDDVCGCDEARAELEEIVDFLKDPTKYESLGGKLPKGVLLTGPPGTGKTLLARATAGEAGVDFFFMSGSEFDEVYVGVGAKRIRDLFAQARSRAPAIIFIDELDAIGGKRNPKDQAYAKQTLNQLLVELDGFSQTSGIIIIGATNFPEALDKALTRPGRFDKVVNVDLPDVRGRADILKHHMKKITLADNVDPTIIARGTPGLSGAELANLVNQAAVYACQKNAVSVDMSHFEWAKDKILMGAERKTMVLTDAARKATAFHEAGHAIMAKYTNGATPLYKATILPRGRALGITFQLPEMDKVDITKRECQARLDVCMGGKIAEELIYGKDNTTSGCGSDLQSATGTARAMVTQYGMSDDVGPVNLSENWESWSNKIRDIADNEVIELLKDSEERARRLLTKKNVELHRLAQGLIEYETLDAHEIEQVCKGEKLDKLKTSTNTVVEGPDSDERKDIGDDKPKIPTMLNA” is “failed”. Regarding “MNVTLGTGDGADFWVFGFGSLIWKPDIPFEECRDAFITGWRRRFWQHSTDHRGTESYPGRVATLVLAEQPGERCYGRAYRVDNEAAADVLAYLDEREKQGYSRLALPVYDARSAEQITKHALVYIAREDNPHFVRAADERQIPVLCRIIARARGPSGDNATYLFRLKESLDEIGVRDEHVDELVFGVRAELEALASACSESTPHGVAVAPTAASFDAVPASSDDLR”, the protein production entry was “failed”.

For “MNYAEKKKNWIKLGIFALFAGGILAYIGISNADIHWGGFISMMIFFAFTYYLGAFYAAKKSNSFSDMIVAKRSMPFFVGMVTMAATWVGGGYINGTAESTYSDGLIWAQAPWGYALSLIIGGIFFARKMRRHQFMTIIDPLEQRFGKRMAGVLYIPALLGELFWSAAILTALGTTFGMILNIDFQTSIILSAMIAIAYTVAGGMWAVAFTDVFQMIVILLGLFLVVPFVLSNVGALDSVWANYRHDFGSSANLLPPLDGWKNPDWGNLFWNWWDNALLLIFGGIAWQVYFQRVLSAKSESAAMWQSIIAGVICIIAAIPCVIIGAAGNSTDWSLFGASAPDNPAMILPQTLAYLTPGIIAGLGLGAIAAAVMSSMDSSILSASSMAAWNIYRPLIKPKATQKQLQKVVKRSIILFGAGAAVIALNVKSVYTLWYLASDLVYCILFPQLTMALFYKRANLYGSIAGFAVAVILRLGGGEPAFGIPPLLPYPMIEDGTVLFPFRTLAAVTAFMTIFAVSELTQRKCPPKQLVLPQEKQKDDRAA”, the protein production entry is listed as “failed”.

On to “MNYKKHRGETLFKRWFLNNRFSIVLLNILLFFLIIWVFNKISFVLNPAWVFFSAILPPLLLALIQYYIMNPVVDWFEKKFRVPRVLTIIVLFLFVVIAMIWIINILVPIAQHQINSLVKNWPHIWNDAVNATQNALRDPRLHSVKGSIQGMIDDTQKTLFKSGQNTVNSTLGNISSAVSIITMIVMTLLTAPFILFFMLKDGHQLRPYITKFVPETWQQSFSKLLYDINYAVASYIRGQITVAFWVGVMFTIGYIIIGLPYGLALAILAGFMNLIPYFGTPLALIPVIVISIMTSGSMLVKVLIVFAIEQTIETRILSPLVMGNKMQMHPVTTILLLIGASSVWGLWGVIFGIPIYAVLKIIVSRVYNYYRRESDIFSNEDAASLTTGDADESKK”, for which the protein production result is recorded as “failed”.

For “MNYLPMMIVFPLIMAIIMNLLHGKEKAVKYITFITAAILIILPFISQYGYYYFGGHGVVNGWVSGIAYLYNPAKQAIIVTLSLIASLVLITGMGEKLKNNMFVTLSLMGFASIAAIVLADDIFNLYVFFEIVSIVQAGLVFLSGTEEAYKAGLRYMIMGNVAAALMLLGIAFLLASTGTLNITDMKHYLLVDNPMIYGGLLLLIVGLAYGAGLPPFHNVKADLYARSKGFISAMLQTYSKFVLVGLMIIILKLFNGLDYFASAHAVLIALGVLAMVFGVVMALLQSDYKKLLAYHAISQGGYVATGLALGTPLGIVAGIFHAINHVIYKSALFLGAYIVSCKRGSNLHKLGGLLPLMPSVAFMVLCAKLAISGIPPFNGFQSKWMLAQAAMQVNMPEIAIIMIIVSIGTFVSMMKAFYLIYLKPVDEETLKEYQNKEVPKLAVFSLFVLTALCIIIGLYPDIVTNYLWDYAKELGVNYYLK”, the protein production result is “failed”.

Turning to “MNYQDVLDFWFAPDHTNFWFAKDSLFDDEIRTQFSTVHQQATQAELWSWRQTVEGRLAEIIVLDQFSRNLYRDQAQAFAQDSMALALAQEAITQQLDAQLSPEQRSFLYMPFMHSESKLIHEFALKLFQKLGNEINLSFEKKHKVIIDQFGRYPHRNAILGRQSTPEELEFLTQPNSHF”, the protein production result is reported as “failed”. The entry for “MNYQKMNYQKLGVDILALSGGKQNVSKLTHCATRLRFEFNDSHAVQAEAIAKLPGVISVVDRGGQFQVVIGNDVQITYRAILNEIGEMNGQRTSDKNKQQKKGGIFSQIISVISTTFTPVIPAITGAGMIKALLAILKLTGLISADSTTYRLLDTISDAAFFFLPVLLAYGASIKFACNPILAMTIAGALLHPNLAQLLASGGPISFIGIPVRLADYAGSVLPIILTVWIMSYIERFAEKISPSMITFFTKPMIVLLFTAPLALVVIGPFGIFLNDLVASGAAIIDGKASWLIPMLMGGLQPFLVITGTAWAMTPIATSQLTRNGFEMINGPGMLASNIAQGAATLCVAFKTKNKNLKQLASSAGFTALLGITEPSLYGVTLKLKKPLIAAMIGGGCAGIYAGLAGLVRYAFVSPGLAALPAFIGENPMNIVHALITCAIAIVVTFALTWIMGFDDPVDETDNAQTDSTQSDARQSAPAANTTQKSQATENHAEPQTILSPLSGKLVALSDINDDVFSQGLLGQGVAIIPDNGEVVAPVSGEIITFLESKHAVGIRTDSGLELLIHVGLDTVNLNGKHFTGYIKPGDRVTAGDRLISFDLHEITRLGYDPITPVVIINSDEYASVVCTVPQPIAPMDTIINVNA” is “failed”. Next, “MNYRLLVFDFDGTLADSEASIMGAMQLVAKEFGLSEVDCVKARPTIGLSLLRTIEIGLGLEAGDAAAAVELYRRYYKEIAFDSTCLFPGVKETQEQLRQNSLLAIASSKSRQGLLSRMRQFGIVDHFSFIAGAQDISGL”: “failed”.

Regarding “MPAFSLLPKPSALLPLLLAAAFLPPAFVHAEEEAAKDQPQAPVERPAVSERSQDEAKGLERQLPEDGQQILKAGDESFLTLWLPANTAEAEGVVILVPGDGESPDWPQAIGPLRRKLPDAGWQTLSLALPDPQSTAPVTRPAESAASASADKDASAADSASKPDVKGESGNAPAPESTAEAGSGEPAQSEDQAPPPAIDPVEQRKAHAERVMARLQASIDLALQHEPKSVVLLGHGTGAYWAARYLAEKEPAEIHNLLLVAAEVPRDFRPALEDMVPKLKLATGDFYYRDARADREAARLRMQAGKRQKHPAYVQIAMQALPADPKAEQEQLYRRIRGWLSLHLQADAQKPAE”, the protein production result is recorded as “failed”.
